This assay deals with HA head of H1N1 A/Solomon Islands/3/2006 (Influenza A virus, A/Solomon Islands/3/2006 (H1N1)). Briefly: BLI. In general terms: In BLI a coated tip is dipped into the sample, and binding shifts an interference pattern.

The text below walks through data of publication PMC4368477.

For the substance “CH65 Fab with light-chain reversion R29S”, the Kd (as a rule, the equilibrium constant for the complex coming apart) was determined as 1.21 µM.
Consider “CH67 Fab with light-chain reversion R29S”, for which the dissociation constant Kd is 0.37 µM; the koff (in general, a measure of how fast the partners let go of each other) is 0.019 s⁻¹; the kon – broadly, a measure of how fast the partners come together – is 52000 M⁻¹ s⁻¹.
In the case of “CH67 Fab with light-chain reversions D33H and R31S”, the Kd stood at 1.5 µM and the off-rate (koff) came to 0.067 s⁻¹.
